Reference: patent US20190023750A1 (SPOGEN BIOTECH, published 2019)

Target: FLS2 receptor (in corn tissue) (corn (taken from the assay tissue; …)
Test: cell-based or functional assay

## QRLSSGKRINSASDDAAGLAIA [Bt.Flg22-Syn03, Mutant D1Q (SEQ ID NO: 573)]
  Avg. Activity (%), ROS activity in corn (5828 YX) at 5 nM polypeptide, relative to Bt.4Q7Flg22: 122%
